Assay results as given in the RNAGym collection of RNA variant scans (doi:10.1073/pnas.2313332121).

B1: TPR t1 (parent)
chain: GACCAAUCUGCCCUCAGAGCUCGAGAACAUCUUCGGAUGCAGAGGAGGCAGGCUUCGGUGGCGCGAUAGCGCCAACGUCCUCAACCUCCAAUGCAUCCCACCACAUGAUGAUGCCUGAAGAGCCUUGGUUUUUUG

Variants of: B1
Assay: polymerase ribozyme fitness, log enrichment relative to wild type (log ratio); higher = more active; in vitro selection for triplet polymerase activity
In short: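 Fitness measures genotype enrichment against wild-type enrichment on a logarithmic scale, with inverse-variance-weighted averaging of replicates. The logarithm is base 2, and genotypes were kept only with ≥10 input reads and ≥1 read per output in Illumina sequencing. The sequenced libraries came from one triplicate in vitro selection round, including frozen incubation at −7 °C, of PCR-built, transcribed mutant libraries of each subunit of a heterodimeric triplet polymerase ribozyme.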

Row | Variant | polymerase ribozyme fitness (log ratio)
1 | GACCAAUCUGCCCUCAGAGCUCGAGAACAUCUUCGGAUGCAGAGGAGGCAGACUUCCGUGGCGCGAUAGCGUCAACGUCCUCAACCUCCAAUGCAUCCCACCACAUGAUGAUGCCAGAAGAGCCUUGGCUUUUUG [G52A G57C C72U U116A U129C] | -4.37
2 | GACCAUUCUGCACUCAGAGCUCGAGAACAUCUUCGGAUGCAGAGGAGGCAGGCUUCGGUGGCGCGAUAGCGCCAACGUCCUCAACCUCCAAUGCAUCCCACCACAUGAUGAUGCCUGAAGAGCAUUGGUUUUUUG [A6U C12A C124A] | 0.761
3 | GACCAAUCUGCCCUCAGAGCUCGAGAACAUCUUCGGAUGCAGAGGAGGCAGGCUUCGGUGGCGCGAUAGCGCCAACGUCCUCAACCUCCAAUGCAUCCCACCACAUGAUGAUGCCUGAAGAGCGUUGGUUGUUUG [C124G U131G] | 1.33
4 | GACCAAUCUGCCCUCAGAGCUCGAGAACAUCUUCGGAUGCAGAGGAGGCAGGCUUCGGUGGCGCGAUAGCGCCAACGUCCUAAACCUCCAAUGCAUCCCACCACAUGAGGAUGCCUGAAGAGCCUUGGUUUUUUG [C82A U109G] | -4.53
5 | GACCAAUCUGCCCUCAGAGCUCGAGAACAUCUUCGGAUGCAGAGGAGUCAGGCUUCGGUGGCGCGAUAGCGCCAACGUCCUCAACCUCCAAUGCAUCUCACCACAUGAUGAUGCCUGAAGAGCCUUGGUUUUUUG [G48U C98U] | -1.96
6 | GACCAAUCUGCAAUCAGAGCUCGAGAACAUCUUCGGAUGCAGAGGAGGCAGGCUUCGGUGGUGCGAUAGCGCCAACGGCCUCAACCUCCAAUGCAUCCCACCACAUGAUGAUGCGUGAAGAGCGUUUGUUUUUUG [C12A C13A C62U U78G C115G C124G G127U] | -6.43
7 | GACCAAUCUGCCCUCAGAGCUGGAGAACAUCUUCGGAUGCAGAGGAGGCUGGCUUUGGUGGCGCGAUAGCGCCAAUGUCCUCAACCUGCAAUGCAUCCCACCACAUGAUGAUGCCUGAAGAGCGUUGGUUUUUUG [C22G A50U C56U C76U C88G C124G] | -5.33
8 | GACCCAUCUGCCCUCAGAGCUCGAGAACAUCUUCGGAUGCAGAGGAGGCUGGCUUCGGUGGCGCGAUAACGCCAACGUCCACAACCUCCAAUGCAUCCCACCACAUGAUGAUGCCUGAAGCGCCUUGGUUUUUUG [A5C A50U G69A U81A A121C] | -1.62
9 | GACCAAUCUGCCCUCAGAGCUCGAGAACAUCUUCGGAUGCAGAGGAGGCAGGCUUCGGUGGCGCGAUAGCGCCAACGUCCUCAACCUCCAAUGCAUCCCACCACGUGAUGAUGCCUGAAGCGCCUUGGUUUUUUG [A105G A121C] | -0.542
10 | GACCAAUCUGCCCUCAGAGCUCGUGAACAUCUUCGGAUGCAGAGGAGGCAGGCUUCGGUGGCGCGAUAGCGCCAACGUCCUCAACCUCCAAUGCAUCCCACCACAUGAUGAUGCCUGAAGAGUCUUGGUUUUUUG [A24U C123U] | -4.2
11 | GACCAAUCUGCCCUCAGAGCUCGAGAUCAUCUUCGGAUGCAGAUGAGGCAGGCUUCGGUGGCGCGAUAGCGCCAACGUCCUCAACCUCCAAUGCAUCCCACCACAUGAUGAUGCCUGAAGAGCCUUGGUUUUUUG [A27U G44U] | -3.87
12 | GACCACUCUGCUCUCAGAGCUCGAGAACAUCUUCGGAUGCAGAGGAGCCAGGCUUCGGUGGCGCGAUAGCGCCAACGGCCUCAACCUCCAAUGCAUCCCACCACAUGAUCAUGCCUGAAGAGCCUUGGUUUUUUG [A6C C12U G48C U78G G110C] | -4.8
13 | GACCAAUCUGCCCGCAGAGCUCGAGAACAUCUUCGGAUGCAGAGGAGGCAGGCUUCGGUGACGCGAUAGCGCCAACGUCCUCAACCUCCAAUGCAUCCCACCACAUGAUGAUGCCUGAAGAGCCUUGGUUUUUUG [U14G G61A] | -1.48
14 | GACCAAUCUGCCCUCAGAGCUCGAGAACAUCUUCGGAUGUAGAGGAGGCAGGCUUCGGUGGCGCGAUAGCGCCAACGUCCUCAACCUCCAAUGCAUCCCACCACAUGAUGAUGCCUUAAGAGCCUUGGUUUUUUG [C40U G117U] | -1.71
15 | GACCAAUCUGCCCUCAGAGCUCGAGAACAUCUUCGGAUGCAGGGGAGGCAGGCUUCGGUGGCACGAUAGCGCCAACCUCCUCAACCUCCGAUGCAUCCCACCACAUGAUGAUGCCUGAAGAGCCUUUGUUUUUUC [A43G G63A G77C A90G G127U G135C] | -3.69
16 | GACCAAACUGCCCUCAGAGCUCGAGAACAUCUUCGGAUGCAGAGGAGGCAGGCUUCGGUGGCGCGAUAGCCCCAACGUCCUCAACCUCCAAUGCAUCCCACCACAUGAUCAUGCCUGAAGAGCCUUGGUUUUUUG [U7A G71C G110C] | -6.39
17 | GACCAAUCUUCCCUCAGAGCUCGAGAACAUCUUCGGAUGCAGAGGAGGCACGCUUCGGUGGCGCGAUAGCGCCAACGUCCUCAACCUCCAAUGCAUCCCACCACAUGAUGAUGCCUGAAGAGCCUUGGUUUUUUG [G10U G51C] | -3.01
18 | GACCAAUCUGCCAUCAGAGCUCGAGAACAUCUUCGGAUGCAGAGGAGGCAGGUUUCGGUGGCGCGAUAGCGCCAACGUCCUCAACCUCCAAUGCAUCCCACCACAUGAUGAUGCCUGAAUAGCCUUGGUUUUUUG [C13A C53U G120U] | -1.1
19 | GACCAAUCUGCCCUCAGAGCUCGAGAACAUCUUCGGAUGCAGAGGAGGCAGGCUUCGGUAGCGCGAUAGCGCCAACGUCUUCAACCUCUAAUGCAUCCCACCACAUGAUGAUGCCUGAAGAGCCUUGGGUUUUUG [G60A C80U C89U U129G] | -3.44
20 | GACCAAUCUGCGCUCAGAGCUCGAGAACAUCUUCGGAUGCAGAGGAGGCAGGCUUCGGUGGCGCGAUAGCGCCAACGUCCUCAACCUCCAAUGCAUCCCACCACAUGAUGAUGCCUUAAGAGCCUUGGUUUUUUG [C12G G117U] | -1.22
21 | GCCCAAUCUGCCCUCAGAGCUCGAGAACAUCUUCGGAUGCAGAGGAGGCAGGCUUCGGUGGCUCGAUAGCGCCAACGUCCUCAACCUCCAAUGCAUCCCUCCACAUGAUGAUGCCUGAAGAGCCUUGGUUUUGUG [A2C G63U A100U U133G] | -3.47
